These results are taken from PMC12541693.

Experiment in all cases: potentiometry
Settings in all cases: 298.2 K; 0.1 M KCl; none (unbuffered, KCl background); metal-free (apo) peptide

One data set has as its target Asp11 (position 11, …-).
In data set [1] the target is Lys14 (position 14, MVDAYKG----).
Data set [2] deals with Tyr13 (position 13, VMVDAYKG---).
Another data set concerns the target Asp10 (position 10, …-).
For data set [3], the target named is Lys13 (position 13, MVDAYKG----).
Data set [4] addresses Tyr12 (position 12, VMVDAYKG---).

As to GWHHAQIVMVDAYKG [Pep2 (bis-histidyl minimal SpyTag peptide with Ala spacer) (synthetic construct (SpyTag-derived))], the pKa is listed as 3.67(5) with Asp11 (position 11, …-); 10.16(5) in data set [1]; 9.7(1) in data set [2].

As to GWHHQIVMVDAYKG [Pep1 (bis-histidyl minimal SpyTag peptide) (synthetic construct (SpyTag-derived))], the pKa with Asp10 (position 10, …-) was 3.65(4); in data set [3], 10.10(9); in data set [4] it was 9.51(7).
